Measurements: US20100209945A1 (KOREA RESEARCH INSTITUTE OF BIOSCIENCE AND BIOTECHNOLOGY, published 2010)

How the values were obtained:
human originated HIgG1 [1] = target: T1, human originated HIgG1; assay: SPR (Biacore 3000), hybrid of 1a on a CM-5 chip, antibody at 100 to 1000 nM, nonlinear regression with BIAevaluation
T1 construct: also called human IgG1 (anti CRP) antibody
Method: (§1) The antibody solutions containing HIgG1, rabbit IgG, MIgG3 antibodies at the concentrations of 100 nM, 250 nM, 500 nM and 1,000 nM were spilled on the chip surface-treated with the hybrid of 1a of Example <3-1> at the speed of 10 μl/minute to induce the binding reaction and the degree of binding was measured by surface plasmon resonance (SPR) using Biacore 3000.
(§2) As a result, SPR sensor gram values represented in dotted line were obtained. The values were analyzed by nonlinear regression using BIAevaluation software equipped in Biacore 3000 to draw a theoretical line graph (FIG. 4a). From the theoretical graph, kinetic coefficients shown in FIG. 4b were obtained and the overlapping of each dotted line on the line indicates the calculation was correct.

rabbit originated IgG [2] = target: T2, rabbit originated IgG; assay: as above
T2 construct: also called rabbit IgG; rabbit originated antibodies
Method: as §1, §2

BSA = target: T3, BSA (UniProt P02769 25-607); assay: SPR (Biacore 3000), peptide hybrid coupled to a dextran CM-5 Au chip; legend: chip of formula 1, paragraph 80: hybrid of 1a
T3 construct: Control protein; also called BSA (control)
Method: Antibody solutions containing different animal originated antibodies of Example 2 or 5 μg/ml of BSA (control) in PBS were spilled on the chip of Example <3-1> at the speed of 10 μl/minute to bind the antibody to the peptide hybrid on the surface of the chip. The binding capacity was measured by surface plasmon resonance (SPR) using Biacore 3000.

human originated HIgG1 [3] = target: T1, human originated HIgG1; assay: SPR (Biacore 3000), hybrid of 1a on CM-5 chip, antibody at 100-1,000 nM, nonlinear regression with BIAevaluation
Method: as §1, §2

rabbit originated IgG [4] = target: T2, rabbit originated IgG; assay: as above
Method: as §1, §2

[5] = target: mouse originated antibody MIgG3; assay: SPR (Biacore 3000), hybrid of 1a on a CM-5 chip, antibody at 100 to 1000 nM, nonlinear regression with BIAevaluation; Kon and Koff printed as NA
Method: as §1, §2

T3 sequence (P02769 25-607 limits assumed): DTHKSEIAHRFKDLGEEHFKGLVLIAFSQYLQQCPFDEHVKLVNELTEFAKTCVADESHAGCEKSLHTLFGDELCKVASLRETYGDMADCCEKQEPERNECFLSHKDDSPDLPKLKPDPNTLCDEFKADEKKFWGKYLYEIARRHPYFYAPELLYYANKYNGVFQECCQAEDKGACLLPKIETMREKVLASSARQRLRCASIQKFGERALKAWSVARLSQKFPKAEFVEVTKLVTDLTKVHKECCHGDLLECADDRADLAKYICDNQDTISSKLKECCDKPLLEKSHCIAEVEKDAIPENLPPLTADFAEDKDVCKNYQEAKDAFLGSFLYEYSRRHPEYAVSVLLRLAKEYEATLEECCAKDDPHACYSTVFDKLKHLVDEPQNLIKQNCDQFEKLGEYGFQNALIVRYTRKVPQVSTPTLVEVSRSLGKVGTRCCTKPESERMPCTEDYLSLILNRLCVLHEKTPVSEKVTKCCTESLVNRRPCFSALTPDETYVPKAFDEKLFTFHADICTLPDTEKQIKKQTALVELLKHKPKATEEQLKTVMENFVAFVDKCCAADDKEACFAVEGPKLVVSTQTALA

B1: peptide hybrid for protein immobilization represented by formula 1a (H2N(CH2CH2O)2CH2CH2CO-EDDC*AWHLGELVWC*T-CONH2) (peptide)
peptide: EDDCAWHLGELVWCT
modifications: N-terminal H2N(CH2CH2O)2CH2CH2CO- (PEG linker); C-terminal amide (CONH2); disulfide bond between the two Cys (C*)
notes: Synthetic peptide-PEG hybrid; In the assays it was coupled through its terminal amine to a CM-5 chip, magnetic micro beads or a glass plate; also called hybrid of 1a; peptide hybrid of 1a
koff (human originated HIgG1 [1]): 0.02 s⁻¹
kon (human originated HIgG1 [1]): 230000 M⁻¹ s⁻¹
koff (rabbit originated IgG [2]): 0.043 s⁻¹
kon (rabbit originated IgG [2]): 140000 M⁻¹ s⁻¹
binding result (BSA): no binding
Kd (human originated HIgG1 [3]): 85 nM
Kd (rabbit originated IgG [4]): 305 nM
Kd [5]: > 20000 nM
